Reference: patent publication US20110020369A1 (SCHERING, published 2011)

T1: human TSLPR on Ba/F3-hTSLPR-hIL7Ra cells (human, UniProt Q9HC73 23-371)
T1 sequence (looked up): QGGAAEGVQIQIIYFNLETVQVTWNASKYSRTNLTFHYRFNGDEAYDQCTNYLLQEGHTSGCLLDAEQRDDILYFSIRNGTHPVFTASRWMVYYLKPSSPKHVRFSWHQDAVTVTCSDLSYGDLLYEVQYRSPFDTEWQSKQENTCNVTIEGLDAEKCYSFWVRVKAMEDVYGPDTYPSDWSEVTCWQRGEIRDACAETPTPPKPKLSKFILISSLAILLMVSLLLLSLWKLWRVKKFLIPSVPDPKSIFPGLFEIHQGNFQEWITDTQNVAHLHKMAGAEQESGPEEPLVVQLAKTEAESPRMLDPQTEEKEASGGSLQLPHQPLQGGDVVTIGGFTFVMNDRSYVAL

T2: hTSLPR-ECTO-His (human)
T2 chain: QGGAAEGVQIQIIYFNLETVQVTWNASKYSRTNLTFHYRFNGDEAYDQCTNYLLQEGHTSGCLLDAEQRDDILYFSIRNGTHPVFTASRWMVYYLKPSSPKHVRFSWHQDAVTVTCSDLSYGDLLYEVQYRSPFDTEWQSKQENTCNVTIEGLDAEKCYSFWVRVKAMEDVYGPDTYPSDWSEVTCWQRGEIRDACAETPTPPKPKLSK


Columns and labels:
[1] = target: T1, human TSLPR on Ba/F3-hTSLPR-hIL7Ra cells; assay: cell-based or functional assay
[2] = target: cynomolgus TSLPR on Ba/F3-cTSLPR-cIL7Ra cells (cynomolgus monkey); assay: cell-based or functional assay
[3] = target: T3, cTSLPR-Ig (cynomolgus monkey); assay: ELISA, plate coated with TSLPR 50 ng/well, HRP goat anti-mouse detection
T3 construct: also called cyTSLP R-hIg P749; Mam-Trans[FlagPreProTrypsin]DELTA2_NHP[Ig]
Procedure: (§1) The ELISA measures the EC50 of certain mouse anti-TSLPR antibodies generated according to Example 2 are reported on Table 4. The antibodies were purified from hybridoma supernatants, and his-hTSLPR or cTSLPR-Ig was used to determine binding affinity.
(§2) Coating of plates was performed as follows: TSLPR (50 ng per well) in PBS was incubated at 4° C. overnight. Plates were washed with 1 cycle (3 washes/cycle) on a Molecular Devices plate washer. Antibody was then titrated across a row of eight wells in the range of 3000 ng/mL to […] using serial 3-fold dilutions and incubated for 60 min. at 25° C. Plates were washed for 1 cycle, HRP-goat anti-mouse) (1:2,000 dilution) was added at 0.05 mL/well and incubated for 60 min at 25° C. Plates were washed for 1 cycles. ABTS substrate was added at 0.05 mL/well and incubated 10 min at 25 C. Plates read at) or A_{405 nm}. [0223]

[4] = target: T2, hTSLPR-ECTO-His; assay: as above
Procedure: as §1, §2

[5] = target: T3, cTSLPR-Ig; assay: SPR BIAcore T100, cyTSLPR-hIg amine-coupled on CM5, antibody as analyte, bivalent analyte model, n = 6
Procedure: (§3) The kinetic binding activities of the mouse anti human TSLPR antibody 13H5, chimeric anti-human TSLPR 13H5 antibody, rat anti-human TSLPR antibody 18B3, and mouse anti-human TSLPR antibody 70E8 against both human (hu) and cynomolgus monkey (cyno) TSLPR were measured by surface plasmon resonance using a BIAcore T100 system (BIAcore AB, Upsalla, Sweden). Approximately 70RUs of […] were immobilized via amine coupling chemistry onto a Sensor Chip CM5 (Research grade, BR-1006-68). HBS-EP buffer (BR-1006-69) was used as the running buffer with a flow rate of 30 μL/min. Antibodies at varying concentrations ranging from 0.01 to 600 nM were injected over the immobilized hu or cyno TSLP surfaces at a flow rate of 30 μL/min. Following each injection cycle the CM5 chip surface was regenerated using a series of solutions (10 mM Glycine pH 1.5 and 25 mM NaOH respectively) at a flow rate of 75 μL/min.
(§4) Background subtraction binding sensorgrams were used for analyzing the rate constant of association (ka) and dissociation (kd), and the equilibrium dissociation constant KD. The resulting data sets shown in Table 5 were fitted with a bivalent analyte model using the BlAevaluation software (version 1.0).

[6] = target: T3, cTSLPR-Ig; assay: SPR BIAcore T100, cyTSLPR-hIg amine-coupled on CM5, antibody as analyte, bivalent analyte model, n = 2
Procedure: as §3, §4

| Avg IC50, Ba/F3-huTSLPR proliferation [1] [µg/mL] | IC50 Assay I, Ba/F3-huTSLPR proliferation [1] [µg/mL] | IC50 Assay II, Ba/F3-huTSLPR proliferation [1] [µg/mL] | IC50 Assay III, Ba/F3-huTSLPR proliferation [1] [µg/mL] | Avg IC50, Ba/F3-cyTSLPR proliferation [2] [µg/mL] | IC50 Assay I, Ba/F3-cyTSLPR proliferation [2] [µg/mL] | IC50 Assay II, Ba/F3-cyTSLPR proliferation [2] [µg/mL] | IC50 Assay III, Ba/F3-cyTSLPR proliferation [2] [µg/mL] | EC50 [3] [µg/mL] | EC50 [4] [µg/mL] | Avg IC50, inhibition of hTSLP-induced proliferation of Ba/F3-huTSLPR cells [1] [µg/mL] | Kd [5] [nM] | koff [5] [s⁻¹] | kon [5] [M⁻¹ s⁻¹] | Kd [6] [nM] | koff [6] [s⁻¹] | kon [6] [M⁻¹ s⁻¹] | Binder |
| --- | --- | --- | --- | --- | --- | --- | --- | --- | --- | --- | --- | --- | --- | --- | --- | --- | --- |
| 0.0446 | 0.0442 | 0.0489 | 0.0407 | > 50 | ~55 | ~90 | ~90 | 0.958 | – | – | – | – | – | – | – | – | mouse anti-human TSLPR antibody 70E8 (antibody, mouse IgG1, V domains shown, Mouse IgG1/kappa from hybridoma; also called m70E8; LB55.70E8.1A8) VH: DVQLQESGPDLVKPSQSLSLTCTVTNYSITSGYSWPWIRQFPGNKLEWLGYIHSSGRTNYNPSLKSRISITRDTSKNQFFLQLNSVTPEDTATYYCARSQLGLVFFAYWGQGTLVTVSA VL: DIVMTQSQKFMSTSVGDRVSVTCKASQSVGANVAWYQQIPGHSPKVLIYSASYRFSGVPDRFTGSGSGTDFTLTISNVQSEDLAEYFCQQYNSYPYTFGGGTKLEIRR |
| 0.262 | 0.292 | 0.202 | 0.291 | – | – | – | – | 0.081 | 0.0059 | – | – | – | – | – | – | – | mouse antibody 4G8 (antibody, mouse IgG1, V domains shown, Mouse IgG1/kappa from hybridoma; also called m4G8; LB55.4G8.2A6) VH: QVQLKQSGPGLVQPSQSLSITCTVSGFSLTIYGLHWVRQSPGKGLEWLGVIWRGGSTDYNAAFMSRLRITKDNSKSQVFFKMDSLQADDTAIYYCAKPYYDYDGNWYFDVWGAGTTVTVSS VL: DIVMTQSQKFMSTSVGDRVSVTCKASQNVGTNVAWYQKKSGQSPKPLIYSASSHCSEVPDRFTGSGSGTDFTLTINNVQSEDLAEYFCQQYNRYPLTFGTGTKLEVRR |
| 0.0203 | 0.0195 | 0.0188 | 0.0227 | – | – | – | – | 0.153 | 0.0059 | – | – | – | – | – | – | – | mouse antibody 54C11 (antibody, mouse IgG2a, V domains shown, Mouse IgG2a/kappa from hybridoma; also called m54C11; LB55.54C11.3G11) VH: QVQLQQSGPEVVRPGVSVKISCKGSGFTFTDYAIHWVRQSHAKSLEWIGIIRPSNGNTNCDQKFKDKATMTVDKSSSTAYLDLARLTSEDSAIYYCSRSRVWGGSLAYWGQGTLVTVSA VL: DIVMTQSQKFMSTSVGDRVSVTCKASQNVGTNIAWYQQKPGQSPEALIYSASYRYSGVPDRFTGSGSGTDFTLTITNVQSEDLAEYFCQQYKSYPWTFGGGTKLEIKR |
| – | 0.0127 | 0.014 | 0.0097 | 0.0129 | 0.0104 | 0.0148 | 0.0134 | > 0.001 | – | 0.0121 | 0.089 | 7.1e-05 | 800000 | – | – | – | mouse anti human TSLPR antibody 13H5 (antibody, mouse IgG1, V domains shown, Mouse IgG1/kappa purified from hybridoma supernatant; also called m13H5; LB55.13H5.2C3) VH: QVLLKQSGPSLVQPSQSLSITCTVSGFSLSRYGVHWVRQSPGKGLEWLGVIWRSGSTDYNAAFMSRLSITQDNSKSQVFFNMNSLQSDDSAIYYCAKKAFYVMDYWGQGTSVTVSS VL: DIQMTQTTSSLSASLGDRVTISCRASQDISIYLNWYQQKPDGTVKLLIYYTSRLHSGVPSRFSGSGSGTNFSLTITNLEEEDIATYFCQQGNTLPWTFGGGTKLEIKR |
| – | – | – | – | – | – | – | – | – | – | – | – | – | – | 0.374 | 0.000172 | 460000 | chimeric anti-human TSLPR 13H5 antibody (antibody, V domains shown, also called chim 13H5; Chimeric 13H5; not shown: human IgG1 heavy chain constant region (CH1-hinge-CH2-CH3); human kappa light chain constant domain (CL domain)) VH: QVLLKQSGPSLVQPSQSLSITCTVSGFSLSRYGVHWVRQSPGKGLEWLGVIWRSGSTDYNAAFMSRLSITQDNSKSQVFFNMNSLQSDDSAIYYCAKKAFYVMDYWGQGTSVTVSS VL: DIQMTQTTSSLSASLGDRVTISCRASQDISIYLNWYQQKPDGTVKLLIYYTSRLHSGVPSRFSGSGSGTNFSLTITNLEEEDIATYFCQQGNTLPWTFGGGTKLEIKR |
| 0.127 | 0.143 | 0.108 | 0.131 | 0.231 | 0.202 | 0.246 | 0.246 | 0.0059 | 0.0417 | – | – | – | – | – | – | – | mouse antibody 49A5 (antibody, mouse IgG1, V domains shown, Mouse IgG1/kappa from hybridoma; also called m49A5; LB55.49A5.2F9) VH: QVQLKQSGPGLVQPSQSLSITCTVSGFSLTTYGVHWVRQSPGKGLEWLGVIWRGGNTAYNPAFMSRLSITKDNSKSQVFFKMNSLQADDTAIYHCAKKSYYGYHAMGYWGQGTSVTVSS VL: DIQMTQTTSSLSASLGDRVTINCRASQDISNYLNWYQQNPDGTVKLLIYYTSRLHSGVPSRFSGSGSGTDYSLTISNLEQEDIATYFCQQANTLPWTFGGGTKLEIKR |
| 0.304 | 0.318 | 0.259 | 0.335 | – | – | – | – | – | – | – | – | – | – | 10.1 | 0.0078 | 770000 | rat anti-human TSLPR antibody 18B3 (antibody, V domains shown, Rat monoclonal antibody; also called r18B3; LB1.18B3) VH: EVQLVESGGGLVQPGRSLRLSCVASGFTFNNYWMTWVRQAPGKGLEWVASITDTSGRTYYPDSVKGRFTISRDHAKSTLYLQMNSLRPEDTATYYCTKTLGGIPRDWGQGVMVTVSS VL: NIQLTQSPSLLSASVGDRVTLSCKGSQNINNYLAWYQQKLGEAPKLLIFKTNILQTGIPLRFSGSGSGTDYTLTISSLHCEDLATYYCYQFNNGFTFGPGTKLELKR |
| 0.178 | 0.211 | 0.132 | 0.191 | 0.138 | 0.125 | 0.153 | 0.137 | 0.0075 | 0.0458 | – | – | – | – | – | – | – | mouse antibody 54A11 (antibody, mouse IgG2a, V domains shown, Mouse IgG2a/kappa from hybridoma; also called m54A11; LB55.54A11.3D6) VH: EVQLQQSGPELVKPRASVKISCKASGYSFTGYYIHWVKQSHVKSLEWIGRINPYNGATIYNPNFKDKASLTVDKSSSTAFMEVHSLTSEDSAVYYCARSYGYVNYFDYWGQGTTLTVSS VL: EIVLTQSPATLSVTPGDSVSLSCRASQSISNNLHWYHQKSHESPRLLIKFGFQSISGIPSRFSGSGSGTDFTLSINSVETEDFGMYFCQQTNSWLTFGAGTKLELKR |
| 0.162 | 0.174 | 0.139 | 0.172 | > 10 | ~13 | ~18 | ~15 | 0.26 | 0.026 | – | – | – | – | – | – | – | mouse antibody 61C11 (antibody, mouse IgG2a, V domains shown, Mouse IgG2a/kappa from hybridoma; also called m61C11; LB55.61C11.2B1) VH: QAYLQQSGAELVRSGASVKMSCKASGYTFTSYNLHWIKLTPGQGLEWIGYIYPGLNGTLYNQKFRGKATLTADTSSSTAYMQISSLTSEDSAVYFCARSDYGKAWFAYWGRGTLVTVSA VL: DILLTQSPAILSVSPGERVSFSCRASQSIATKIHWYQQRTDHSPRLLIQLGSESISGIPSRFSGSGSGTDFTFTINSVESEDIAVYYCQQSNRYPYTFGGGTKLEVKR |
